Test results published in paper PMC10303687 (Protein Science : A Publication of the Protein Society, 2023).
Ends that are not written are not given here.

T1: MDM2_(D. rerio) SWIB domain (zebra fish (Danio rerio))
T1 construct: four residues left at the N-terminus after PreScission digestion, GPGS or GPMG; which of the two for this variant is in Excel File 1 in Data S1; MDM2, zebra fish, SWIB domain; Construct limits are in Excel File 1 in Data S1; also called zebra fish MDM2; source: E. coli BL21 (DE3) or BL21 (DE3) pLys, purified (Ni Sepharose or glutathione agarose, PreScission cleavage, SEC); not shown: …
T1 sequence (O42354 whole entry, looked up): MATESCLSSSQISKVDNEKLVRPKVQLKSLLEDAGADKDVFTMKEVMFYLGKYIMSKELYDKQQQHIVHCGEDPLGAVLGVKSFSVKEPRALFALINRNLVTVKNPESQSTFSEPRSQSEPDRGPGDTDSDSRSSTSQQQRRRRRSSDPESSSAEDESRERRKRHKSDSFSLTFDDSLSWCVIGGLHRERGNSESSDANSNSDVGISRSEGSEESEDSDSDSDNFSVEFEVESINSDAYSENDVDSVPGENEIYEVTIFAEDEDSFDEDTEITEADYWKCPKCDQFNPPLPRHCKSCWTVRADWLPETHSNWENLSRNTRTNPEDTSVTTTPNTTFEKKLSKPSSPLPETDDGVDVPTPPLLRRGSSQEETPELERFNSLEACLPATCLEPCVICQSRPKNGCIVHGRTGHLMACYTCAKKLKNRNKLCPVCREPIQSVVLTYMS


Assays:
Conditions in all cases: both partners purified
[1] = biological target: MDM2_(H. sapiens) SWIB domain (human (Homo sapiens)); experiment: stopped-flow fluorescence kinetics; 10°C, 20 mM sodium phosphate pH 7.4, 150 mM NaCl, 1 mM TCEP; Trp23 emission; MDM2 constant at 0.5–2 μM, p53TAD varied 1–10 μM for k on; k off from displacement of the 1 μM:1 μM complex by 10–20 μM dansylated human p53TAD peptide; K D = k off/k on
[2] = biological target: T1, MDM2_(D. rerio) SWIB domain; experiment: as above
[3] = biological target: T2, MDM2_(H. sapiens) SWIB domain (human (Homo sapiens)); experiment: as above
T2 construct: four residues left at the N-terminus after PreScission digestion, GPGS or GPMG; which of the two for this variant is in Excel File 1 in Data S1; MDM2, human, SWIB domain; the limits of the human construct itself are in Excel File 1 in Data S1; also called human MDM2; MDM2_(Human); source: E. coli BL21 (DE3) or BL21 (DE3) pLys, purified (Ni Sepharose or glutathione agarose, PreScission cleavage, …)

[4] = biological target: MDM2_(Fishes/Tetrapods)^ML; experiment: as above
[5] = biological target: MDM2_(Reptiles/Mammals)^ML; experiment: as above
[6] = biological target: MDM2_(Fishes/Tetrapods)^AltAll; experiment: as above
p53TAD_(G. gallus)^14–26 = biological target: T3, p53TAD_(G. gallus)^14–26 (chicken (Gallus gallus), acetylated); experiment: as above
T3 construct: numbers count on: human p53 by alignment; also called chicken p53TAD; source: synthetic peptide, bought (Ontores Biotechnology, GL Biochem Shanghai Ltd or GeneCust)

[7] = biological target: MDM2_(Reptiles/Mammals)^AltAll; experiment: as above
[8] = biological target: MDM2_(L. camtschaticum) SWIB domain (arctic lamprey (Lethenteron …)); experiment: fluorescence polarisation; displacement: FITC-labeled human p53TAD 15–26 (6 or 10 nM) and MDM2 constant, dilution series of unlabeled peptide; K D calculated from IC50; room temperature, same buffer as the kinetics
MDM2_(L. camtschaticum) SWIB domain (arctic lamprey (Lethenteron …)), sequence (chain, as listed by the source): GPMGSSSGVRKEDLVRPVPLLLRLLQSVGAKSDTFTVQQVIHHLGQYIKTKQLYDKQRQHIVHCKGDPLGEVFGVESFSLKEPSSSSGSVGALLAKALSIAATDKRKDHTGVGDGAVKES

[9] = biological target: T2, MDM2_(H. sapiens) SWIB domain; experiment: as above

Binder | Kd [3] [nM] | Kd [4] [nM] | other results
DSQETFAELWEKN (not fully specified (N-terminus); also: acetylated, site not given here) [p53TAD_(D. rerio)^insertT18] |  |  | Kd [1]: 4900 nM; Kd [2]: 2300 nM
SQETFSDLWNML (not fully specified (N-terminus); also: acetylated, site not given here) [p53TAD_(Fishes/Tetrapods)^ML] | 8 | 145 | Kd [2]: 93 nM
SQETFSDLWNLL (not fully specified (N-terminus); also: acetylated, site not given here) [p53TAD_(Reptiles/Mammals)^ML] | 8 |  | Kd [5]: 120 nM
SQETFNHLWNML (not fully specified (N-terminus); also: acetylated, site not given here) [p53TAD1R^ML] | 82 | 660 | 
SQETFDFLWKSL (not fully specified (N-terminus); also: acetylated, site not given here) [p53TAD_(Bilateria)^AltAll] | 170 | 650 | 
SQESFSDLWNLL (not fully specified (N-terminus); also: acetylated, site not given here) [p53TAD_(Fishes/Tetrapods)^AltAll] | 19 |  | Kd [6]: 98 nM
MDM2_(G. gallus) SWIB domain (domain or fragment) SPVSASEQEALVKPKPLLLKLLKLAGAEKDTFTMKEVIFYLGQYIMSKQLYDEKEQHIVHCANDLLGDLFGVTSFSVKEHRRIYSMISRNLIAINQQDSTLAVPPEDDA |  |  | Kd (p53TAD_(G. gallus)^14–26): 90 nM
SQDTFSDLWNQL (not fully specified (N-terminus); also: acetylated, site not given here) [p53TAD1R^AltAll] | 24 | 370 | 
SQETFSDLWNML (not fully specified (N-terminus); also: acetylated, site not given here) [p53TAD_(Reptiles/Mammals)^AltAll] | 9.5 |  | Kd [7]: 200 nM
SQETFNHLWNTL (not fully specified (N-terminus); also: acetylated, site not given here) [p53TAD_(Bilateria)^ML] | 600 | 2100 | 
CVDDFDRVWQGGV (not fully specified (N-terminus); also: acetylated, site not given here) [p53TAD_(L. camtschaticum)] |  |  | Kd [8]: 250000 nM
Ac-NDVELAELPWAPEDVI [p53TAD_(I. scapularis)] |  |  | Kd [9]: 400000 nM
